Measurements taken from the supplement of paper PMC7125110.
± gives the standard error. For part of these data: Variants at the floor of the assay were thinned out.

B1: glmS ribozyme (parent)
chain: AUAAAAGCGCCAGAACUACAGAAAUGUAGUUGACGAGGAGGAGGUUUAUCGAAUUUUCGGCGGAUGCCUCCAAA

Experiments:
Settings in all cases: with glucosamine-6-phosphate
glucosamine-6-phosphate [1] = variants of: B1; assay: self-cleavage kobs at 40 uM GlcN6P; higher = faster cleavage; RNA array
Summary of the method: (§1)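 Sequenced MiSeq chips were the platform: E. coli RNA polymerase transcribed barcoded ribozyme variants on them in situ, and a hybridised Cy3 probe tracked these at 37 °C. After glucosamine-6-phosphate (40 μM to 10 mM) in HEPES/KCl/Mg(OAc)2 buffer was flowed in, tiles were imaged over ~14 h. Signals normalised to baseline and to non-cleaving reference variants were reduced to per-tile medians and fit to one- or two-exponential decays to obtain kobs. kcat and KM were derived through weighted Michaelis–Menten fits across concentrations.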

glucosamine-6-phosphate [2] = variants of: B1; assay: self-cleavage kobs at 10000 uM GlcN6P; higher = faster cleavage; RNA array
Summary of the method: as §1

glucosamine-6-phosphate [3] = variants of: B1; assay: self-cleavage kobs at 160 uM GlcN6P; higher = faster cleavage; RNA array
Summary of the method: as §1

glucosamine-6-phosphate [4] = variants of: B1; assay: self-cleavage kobs at 640 uM GlcN6P; higher = faster cleavage; RNA array
Summary of the method: as §1

glucosamine-6-phosphate [5] = variants of: B1; assay: self-cleavage kobs at 2500 uM GlcN6P; higher = faster cleavage; RNA array
Summary of the method: as §1

glucosamine-6-phosphate [6] = variants of: B1; assay: kcat; higher = faster cleavage; RNA array
Summary of the method: as §1

glucosamine-6-phosphate [7] = variants of: B1; assay: KM; higher = weaker cofactor use; RNA array
Summary of the method: as §1

Row | Variant | self-cleavage kobs at 40 uM GlcN6P (glucosamine-6-phosphate [1]) [s⁻¹] | self-cleavage kobs at 10000 uM GlcN6P (glucosamine-6-phosphate [2]) [s⁻¹] | self-cleavage kobs at 160 uM GlcN6P (glucosamine-6-phosphate [3]) [s⁻¹] | self-cleavage kobs at 640 uM GlcN6P (glucosamine-6-phosphate [4]) [s⁻¹] | self-cleavage kobs at 2500 uM GlcN6P (glucosamine-6-phosphate [5]) [s⁻¹] | kcat (glucosamine-6-phosphate [6]) [s⁻¹] | KM (glucosamine-6-phosphate [7]) [µM]
1 | A6G U45A G60C | < 1e-05 | < 1e-05 | – | – | – | – | –
2 | A6G A52U | < 1e-05 | – | < 1e-05 | < 1e-05 | – | – | –
3 | A6U G7U A36G U49C C58G | < 1e-05 | < 1e-05 | – | < 1e-05 | < 1e-05 | – | –
4 | A6G G51A | < 1e-05 | < 1e-05 | < 1e-05 | < 1e-05 | < 1e-05 | – | –
5 | A6U G29U G38A C58A | < 1e-05 | – | – | – | – | – | –
6 | A6U G35C G62A | < 1e-05 | < 1e-05 | < 1e-05 | < 1e-05 | < 1e-05 | – | –
7 | A6U C8U | < 1e-05 | < 1e-05 | < 1e-05 | < 1e-05 | < 1e-05 | – | –
8 | A6U G13C C16A U45G | < 1e-05 | – | – | – | – | – | –
9 | A6G C50G A53G C58U | 0.000224 ± 9.8e-05 | – | – | – | – | – | –
10 | C68A C70G | < 1e-05 | < 1e-05 | – | – | – | < 1e-05 | –
11 | A6G A12C C71A | < 1e-05 | – | – | – | – | – | –
12 | A6G G35U A42G U46G G66U | < 1e-05 | – | – | – | – | – | –
13 | A6G G32U G37C A64U C68G C70G | < 1e-05 | – | – | – | – | – | –
14 | A6G C10A G29U | < 1e-05 | – | – | – | – | – | –
15 | A6G G38A C50G C71A | 9.73e-05 ± 2.8e-05 | – | – | – | – | – | –
16 | A6G G7U | < 1e-05 | < 1e-05 | < 1e-05 | – | < 1e-05 | – | –
17 | A6U C8G G38C G43A | < 1e-05 | < 1e-05 | – | – | – | – | –
18 | A6C U49C | < 1e-05 | < 1e-05 | < 1e-05 | – | – | – | –
19 | A6C C8U A14G | < 1e-05 | < 1e-05 | – | – | – | – | –
20 | A6U G37C G41C U47C A48U G59U | < 1e-05 | < 1e-05 | – | – | – | – | –
21 | A6U C58U | < 1e-05 | < 1e-05 | < 1e-05 | < 1e-05 | < 1e-05 | – | –
22 | A6U A48G G51C G59C | < 1e-05 | < 1e-05 | – | – | – | – | –
23 | A6G C58A | < 1e-05 | – | < 1e-05 | < 1e-05 | < 1e-05 | – | –
24 | A6G G43A | < 1e-05 | < 1e-05 | < 1e-05 | < 1e-05 | < 1e-05 | – | –
25 | A6C U31A | < 1e-05 | 3.99e-05 ± 1.3e-05 | – | < 1e-05 | – | – | –

Row | Variant | self-cleavage kobs at 40 uM GlcN6P (glucosamine-6-phosphate [1]) [s⁻¹] | self-cleavage kobs at 10000 uM GlcN6P (glucosamine-6-phosphate [2]) [s⁻¹] | self-cleavage kobs at 160 uM GlcN6P (glucosamine-6-phosphate [3]) [s⁻¹] | self-cleavage kobs at 640 uM GlcN6P (glucosamine-6-phosphate [4]) [s⁻¹] | self-cleavage kobs at 2500 uM GlcN6P (glucosamine-6-phosphate [5]) [s⁻¹] | kcat (glucosamine-6-phosphate [6]) [s⁻¹] | KM (glucosamine-6-phosphate [7]) [µM]
26 | C68U U69A | < 1e-05 | – | – | – | – | 1.58e-05 ± 6.2e-06 | –
27 | C68U U69G C70U | – | – | – | – | – | 1.34e-05 ± 6e-06 | –
28 | A6G A36C G41U | < 1e-05 | < 1e-05 | – | < 1e-05 | – | – | –
29 | A6C C50G C70U | 0.000111 ± 3.3e-05 | 0.000121 ± 2.9e-05 | – | 0.000347 ± 0.0001 | 0.000114 ± 2.7e-05 | – | –
30 | A6G C10A G13A G62A U65A | < 1e-05 | < 1e-05 | – | – | – | – | –
31 | U69A C70A | – | 3.27e-05 ± 9.4e-06 | – | – | 4.37e-05 ± 1.1e-05 | 3.8e-05 ± 4.6e-06 | –
32 | U69A C70U | – | 6.03e-05 ± 7.8e-06 | 3.52e-05 ± 1e-05 | 4.97e-05 ± 8.2e-06 | 7.15e-05 ± 7.1e-06 | 6.79e-05 ± 5.4e-06 | –
33 | A6C G43C G63A C71A | < 1e-05 | < 1e-05 | – | – | – | – | –
34 | C68G U69G | – | – | – | – | 2.65e-05 ± 1.2e-05 | 2.17e-05 ± 5e-06 | –
35 | C68G U69A | – | – | – | – | – | 1.57e-05 ± 5.7e-06 | –
36 | A6C G35A | < 1e-05 | < 1e-05 | < 1e-05 | < 1e-05 | < 1e-05 | – | –
37 | A6C C10U U30G A52G | < 1e-05 | < 1e-05 | – | – | – | – | –
38 | G62A G63U | – | – | – | – | – | – | 359 ± 79
39 | A6G G35U A52C C70G | < 1e-05 | – | – | – | – | – | –
40 | A6C C58G | < 1e-05 | < 1e-05 | – | < 1e-05 | – | – | –
41 | A6C C58U | < 1e-05 | < 1e-05 | < 1e-05 | – | – | – | –
42 | A6G A15G C71U | < 1e-05 | – | – | – | – | – | –
43 | C68A C71U | – | – | – | – | 2.17e-05 ± 9.8e-06 | 1.62e-05 ± 4.6e-06 | –
44 | C68A C71G | – | – | 3.29e-05 ± 1e-05 | – | 3.63e-05 ± 9.6e-06 | 2.77e-05 ± 1e-05 | –
45 | A6C G13C G29U C70G | < 1e-05 | – | – | – | – | – | –
46 | A6G A42C C71U | < 1e-05 | – | – | < 1e-05 | – | – | –
47 | A6G G35A C67U U69A | < 1e-05 | < 1e-05 | < 1e-05 | < 1e-05 | < 1e-05 | – | –
48 | A6U G7A G44U A52U U55C A64U | < 1e-05 | < 1e-05 | – | < 1e-05 | – | – | –
49 | A6C G7C C11G U55G | < 1e-05 | < 1e-05 | – | – | – | – | –
50 | C67U C70U | – | 0.000377 ± 3e-05 | 4.68e-05 ± 6.2e-06 | 0.000132 ± 9.5e-06 | 0.000264 ± 2e-05 | 0.000418 ± 1.7e-05 | 1370 ± 110
